This is an account of results in the Human Domainome abundance scans (Beltran et al. 2025).

B1: Transcription elongation factor A N-terminal and central domain-containing protein, residues 30 to 77; numbered along this chain, Q8N8B7 (parent)
chain: LTELETIYVTKEHLQETDVVRAVYRVLKNCPSVALKKKAKCLLSKWKA

± gives the uncertainty stated by the source.

In the data set the parent is B1. Put plainly: abundance fitness (aPCA) (normalised: wild type 0, dead -1); higher = more abundant; growth selection in yeast, the domain comes from the species named. The following applies: Homo sapiens.
As for LTELETIYVTKEFLQETDVVRAVYRVLKNCPSVALKKKAKCLLSKWKA [H13F], the abundance fitness was -0.428 ± 0.091. As to LTELETIYVTKEGLQETDVVRAVYRVLKNCPSVALKKKAKCLLSKWKA [H13G], the abundance fitness was -0.232 ± 0.072. Take LTELETIYVTKEELQETDVVRAVYRVLKNCPSVALKKKAKCLLSKWKA [H13E]: the abundance fitness was found to be 0.262 ± 0.12. Regarding LTELETIYVTKECLQETDVVRAVYRVLKNCPSVALKKKAKCLLSKWKA [H13C], the abundance fitness is -0.224 ± 0.079. Consider LTELETIYGTKEHLQETDVVRAVYRVLKNCPSVALKKKAKCLLSKWKA [V9G], for which the abundance fitness turned out to be 0.061 ± 0.072. Turning to LTELETIYNTKEHLQETDVVRAVYRVLKNCPSVALKKKAKCLLSKWKA [V9N], the abundance fitness worked out at 0.232 ± 0.12.

Consider LTELETIYMTKEHLQETDVVRAVYRVLKNCPSVALKKKAKCLLSKWKA [V9M], for which the abundance fitness was -0.098 ± 0.12. For LTELETIYDTKEHLQETDVVRAVYRVLKNCPSVALKKKAKCLLSKWKA [V9D], the abundance fitness was 0.276 ± 0.11. Under LTELETIYCTKEHLQETDVVRAVYRVLKNCPSVALKKKAKCLLSKWKA [V9C] stands -0.172 ± 0.1; under LTELETIYKTKEHLQETDVVRAVYRVLKNCPSVALKKKAKCLLSKWKA [V9K], 0.251 ± 0.12.

LTELETIYWTKEHLQETDVVRAVYRVLKNCPSVALKKKAKCLLSKWKA [V9W]: the abundance fitness is -0.277 ± 0.09. For LTELETIYRTKEHLQETDVVRAVYRVLKNCPSVALKKKAKCLLSKWKA [V9R], the abundance fitness was determined as 0.155 ± 0.068. As for LTELETIYETKEHLQETDVVRAVYRVLKNCPSVALKKKAKCLLSKWKA [V9E], the abundance fitness was found to be 0.318 ± 0.087.

Take LTELETIYLTKEHLQETDVVRAVYRVLKNCPSVALKKKAKCLLSKWKA [V9L]: the abundance fitness was -0.229 ± 0.082.

In the case of LTELETIYYTKEHLQETDVVRAVYRVLKNCPSVALKKKAKCLLSKWKA [V9Y], the abundance fitness is -0.147 ± 0.12. Regarding LTELETIYITKEHLQETDVVRAVYRVLKNCPSVALKKKAKCLLSKWKA [V9I], the abundance fitness was -0.163 ± 0.086. The figure for LTELETIYPTKEHLQETDVVRAVYRVLKNCPSVALKKKAKCLLSKWKA [V9P] is -0.027 ± 0.13; for LTELETIYHTKEHLQETDVVRAVYRVLKNCPSVALKKKAKCLLSKWKA [V9H] it is 0.107 ± 0.2. With LTELETIYSTKEHLQETDVVRAVYRVLKNCPSVALKKKAKCLLSKWKA [V9S], the abundance fitness is 0.085 ± 0.085. On to LTELETIYQTKEHLQETDVVRAVYRVLKNCPSVALKKKAKCLLSKWKA [V9Q], for which the abundance fitness turned out to be 0.265 ± 0.096. For the variant LTELETIYFTKEHLQETDVVRAVYRVLKNCPSVALKKKAKCLLSKWKA [V9F], the abundance fitness turned out to be 0.045 ± 0.16.

With LTELETIYTTKEHLQETDVVRAVYRVLKNCPSVALKKKAKCLLSKWKA [V9T], the abundance fitness is 0.087 ± 0.12. Turning to LTELETIEVTKEHLQETDVVRAVYRVLKNCPSVALKKKAKCLLSKWKA [Y8E], the abundance fitness came out at 0.448 ± 0.24. Consider LTELETIVVTKEHLQETDVVRAVYRVLKNCPSVALKKKAKCLLSKWKA [Y8V], for which the abundance fitness is -0.008 ± 0.16. With LTELETILVTKEHLQETDVVRAVYRVLKNCPSVALKKKAKCLLSKWKA [Y8L], the abundance fitness was -0.233 ± 0.17. For LTELETIGVTKEHLQETDVVRAVYRVLKNCPSVALKKKAKCLLSKWKA [Y8G], the abundance fitness was determined as 0.156 ± 0.094. As for LTELETIRVTKEHLQETDVVRAVYRVLKNCPSVALKKKAKCLLSKWKA [Y8R], the abundance fitness was -0.094 ± 0.12. Regarding LTELETINVTKEHLQETDVVRAVYRVLKNCPSVALKKKAKCLLSKWKA [Y8N], the abundance fitness is -0.043 ± 0.26. Under LTELETIFVTKEHLQETDVVRAVYRVLKNCPSVALKKKAKCLLSKWKA [Y8F] stands -0.339 ± 0.2; under LTELETISVTKEHLQETDVVRAVYRVLKNCPSVALKKKAKCLLSKWKA [Y8S], -0.388 ± 0.28; under LTELETICVTKEHLQETDVVRAVYRVLKNCPSVALKKKAKCLLSKWKA [Y8C], -0.489 ± 0.38. Under LTELETIAVTKEHLQETDVVRAVYRVLKNCPSVALKKKAKCLLSKWKA [Y8A] stands 0.274 ± 0.17; under LTELETIYVTGEHLQETDVVRAVYRVLKNCPSVALKKKAKCLLSKWKA [K11G], -0.022 ± 0.066; under LTELETIYVTYEHLQETDVVRAVYRVLKNCPSVALKKKAKCLLSKWKA [K11Y], -0.599 ± 0.15. As for LTELETIYVTAEHLQETDVVRAVYRVLKNCPSVALKKKAKCLLSKWKA [K11A], the abundance fitness turned out to be 0.095 ± 0.1. LTELETIYVTLEHLQETDVVRAVYRVLKNCPSVALKKKAKCLLSKWKA [K11L]: the abundance fitness was -0.014 ± 0.079. The figure for LTELETIYVTTEHLQETDVVRAVYRVLKNCPSVALKKKAKCLLSKWKA [K11T] is -0.555 ± 0.17. For the variant LTELETIYVTEEHLQETDVVRAVYRVLKNCPSVALKKKAKCLLSKWKA [K11E], the abundance fitness amounted to 0.145 ± 0.089. Take LTELETIYVTIEHLQETDVVRAVYRVLKNCPSVALKKKAKCLLSKWKA [K11I]: the abundance fitness is -0.08 ± 0.12. For the variant LTELETIYVTQEHLQETDVVRAVYRVLKNCPSVALKKKAKCLLSKWKA [K11Q], the abundance fitness was -0.184 ± 0.13. On to LTELETIYVTSEHLQETDVVRAVYRVLKNCPSVALKKKAKCLLSKWKA [K11S], for which the abundance fitness was -0.016 ± 0.086.

On to LTELETIYVTMEHLQETDVVRAVYRVLKNCPSVALKKKAKCLLSKWKA [K11M], for which the abundance fitness was -0.246 ± 0.16. Take LTELETIYVTFEHLQETDVVRAVYRVLKNCPSVALKKKAKCLLSKWKA [K11F]: the abundance fitness was -0.747 ± 0.22. With LTELETIYVTDEHLQETDVVRAVYRVLKNCPSVALKKKAKCLLSKWKA [K11D], the abundance fitness is -0.021 ± 0.12. As for LTELETIYVTREHLQETDVVRAVYRVLKNCPSVALKKKAKCLLSKWKA [K11R], the abundance fitness was -0.348 ± 0.075. As for LTELETIYVTCEHLQETDVVRAVYRVLKNCPSVALKKKAKCLLSKWKA [K11C], the abundance fitness was -0.337 ± 0.11. On to LTELETIYVTNEHLQETDVVRAVYRVLKNCPSVALKKKAKCLLSKWKA [K11N], for which the abundance fitness was -0.627 ± 0.24. The figure for LTELETIYVTKKHLQETDVVRAVYRVLKNCPSVALKKKAKCLLSKWKA [E12K] is 0.138 ± 0.14.

LTELETIYVTKFHLQETDVVRAVYRVLKNCPSVALKKKAKCLLSKWKA [E12F]: the abundance fitness is -0.742 ± 0.16. For the variant LTELETIYVTKWHLQETDVVRAVYRVLKNCPSVALKKKAKCLLSKWKA [E12W], the abundance fitness was -0.71 ± 0.1.

Take LTELETIYVTKDHLQETDVVRAVYRVLKNCPSVALKKKAKCLLSKWKA [E12D]: the abundance fitness is -0.184 ± 0.19. The figure for LTELETIYVTKHHLQETDVVRAVYRVLKNCPSVALKKKAKCLLSKWKA [E12H] is -0.606 ± 0.17; for LTELETIYVTKMHLQETDVVRAVYRVLKNCPSVALKKKAKCLLSKWKA [E12M] it is -0.538 ± 0.12; for LTELETIYVTKPHLQETDVVRAVYRVLKNCPSVALKKKAKCLLSKWKA [E12P] it is -0.25 ± 0.17.
